Data: patent publication US20260234255A1 (Genmab, published 2026)

T1: human CD30 (human, UniProt P28908 19-595)
T1 construct: The same molecule is used for CD30 on HL/ALCL/NHL cell lines; also called huCD30; TNFRSF8
T1 sequence: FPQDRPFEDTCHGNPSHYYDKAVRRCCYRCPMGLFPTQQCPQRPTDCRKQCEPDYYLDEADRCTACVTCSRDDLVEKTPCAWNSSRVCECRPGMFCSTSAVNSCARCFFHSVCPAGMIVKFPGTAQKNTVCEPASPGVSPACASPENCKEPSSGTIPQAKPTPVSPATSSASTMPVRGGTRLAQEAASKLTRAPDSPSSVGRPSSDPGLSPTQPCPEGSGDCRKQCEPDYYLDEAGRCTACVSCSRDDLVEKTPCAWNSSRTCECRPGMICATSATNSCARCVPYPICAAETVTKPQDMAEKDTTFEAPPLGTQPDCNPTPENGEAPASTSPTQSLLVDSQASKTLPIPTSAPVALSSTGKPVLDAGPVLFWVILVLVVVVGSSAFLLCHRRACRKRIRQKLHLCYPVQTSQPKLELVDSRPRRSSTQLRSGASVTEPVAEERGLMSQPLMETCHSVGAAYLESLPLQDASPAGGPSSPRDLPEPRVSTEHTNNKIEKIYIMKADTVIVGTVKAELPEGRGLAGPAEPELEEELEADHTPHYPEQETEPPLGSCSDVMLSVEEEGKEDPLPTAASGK

T2: cynomolgus monkey (Macaca fascicularis) CD30 (cynomolgus monkey, UniProt P28908 19-595 (human entry))
T2 construct: also called mfCD30
T2 chain: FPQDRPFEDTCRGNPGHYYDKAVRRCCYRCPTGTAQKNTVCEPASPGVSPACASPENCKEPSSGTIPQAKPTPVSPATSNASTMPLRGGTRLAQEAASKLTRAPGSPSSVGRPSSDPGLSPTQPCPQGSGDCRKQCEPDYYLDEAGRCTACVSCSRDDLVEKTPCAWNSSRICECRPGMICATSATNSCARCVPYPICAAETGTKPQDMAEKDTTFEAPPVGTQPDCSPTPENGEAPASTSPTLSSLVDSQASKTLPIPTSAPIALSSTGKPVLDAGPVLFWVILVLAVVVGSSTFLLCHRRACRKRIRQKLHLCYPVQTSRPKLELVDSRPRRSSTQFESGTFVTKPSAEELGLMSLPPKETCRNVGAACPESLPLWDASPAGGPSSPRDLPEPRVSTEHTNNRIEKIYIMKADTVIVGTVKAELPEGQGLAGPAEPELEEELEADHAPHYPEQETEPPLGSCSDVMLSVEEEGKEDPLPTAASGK


Legend:
[1] = target: T1, human CD30; assay: flow cytometry, Expi293F cells transfected with human CD30
Method: Data are presented as mean fluorescence intensity (MFI) values as determined by flow cytometry of two technical replicates. […] Data are presented as mean fluorescence intensity (MFI) values as determined by flow cytometry of one representative experiment.
Binding of bispecific CD3×CD30 antibodies and monospecific, bivalent CD30 antibodies to the plasma membrane of Expi293 cells transiently transfected with human CD30 or cynomolgus monkey CD30 was analyzed by flow cytometry.

[2] = target: T2, cynomolgus monkey (Macaca fascicularis) …; assay: flow cytometry, Expi293F cells transfected with cynomolgus monkey CD30 (mfCD30)
Method: Cells (3×10⁴ cells/well) were incubated in polystyrene 96-well round-bottom plates (Greiner bio-one, cat. no. 650180) with serial dilutions of antibodies (ranging from 0.005 to 10 μg/mL in 3-fold dilution steps) in 100 μL staining buffer at 4° C. for 30 min. Experiments were performed in technical duplicate. After washing twice in staining buffer, cells were incubated in 50 μL secondary antibody at 4° C. for 30 min. As a secondary antibody, R-PE-conjugated goat-anti-human IgG (Jackson ImmunoResearch, UK; cat. no. 109⁻¹¹⁶-098) diluted 1:400 in staining buffer was used. Cells were washed twice in staining buffer, resuspended in 30 μL staining buffer containing 0.4% EDTA and analyzed on an iQue Screener (Intellicyt Corporation, USA). Binding curves were analyzed using non-linear regression (sigmoidal dose-response with variable slope) using GraphPad Prism V9.0.0 software (GraphPad Software, San Diego, CA, USA).

[3] = target: T1, human CD30; assay: flow cytometry, HH cells
Method: Cells (3×10⁴ cells/well) were incubated in polystyrene 96-well round-bottom plates (Greiner bio-one, cat. no. 650180) with serial dilutions of antibodies (range 0.0046 to 10 μg/mL in 3-fold dilution steps) in 50 μL staining buffer at 4° C. for 30 min. After washing twice in staining buffer, cells were incubated with 50 μL secondary antibody at 4° C. for 30 min. […] Next, cells were washed twice in staining buffer, resuspended in 100 μL staining buffer supplemented with TO-PRO-3 iodide (Thermo Fisher Scientific; cat. no. T3605; 1:8000 dilution) and analyzed on a FACSCelesta flow cytometer (BD Biosciences, USA). Live cells were gated based on FSC/SSC and absence of TOPRO-3 staining. Binding curves were analyzed by non-linear regression of log-transformed data (sigmoidal dose-response with variable slope, four parameters) using GraphPad Prism V7.02 software (GraphPad Software, San Diego, CA, USA).

[4] = target: T1, human CD30; assay: flow cytometry, L-1236 cells
[5] = target: T1, human CD30; assay: flow cytometry, NCEB-1 cells
[6] = target: T1, human CD30; assay: flow cytometry, DL-40 cells
[7] = target: T1, human CD30; assay: flow cytometry, JVM-2 cells
[8] = target: T1, human CD30; assay: flow cytometry, L-540 cells
[9] = target: T1, human CD30; assay: flow cytometry, SUP-M2 cells
[10] = target: T1, human CD30; assay: flow cytometry, L-82 cells
[11] = target: T1, human CD30; assay: flow cytometry, SR-786 cells
[12] = target: T1, human CD30; assay: flow cytometry, KM-H2 cells

| Binder | binding result [1] | binding result [2] | EC50 (read off the curve) [3] | EC50 (read off the curve) [4] | EC50 (read off the curve) [5] | EC50 (read off the curve) [6] | EC50 (read off the curve) [7] | EC50 (read off the curve) [8] | EC50 (read off the curve) [9] | EC50 (read off the curve) [10] | EC50 (read off the curve) [11] | EC50 (read off the curve) [12] |
| --- | --- | --- | --- | --- | --- | --- | --- | --- | --- | --- | --- | --- |
| bsG1-huCD3-H101G-FEALxCD30-MDX060-FEAR (bispecific antibody, human IgG1, kappa, lambda, Variant of m7 whose CD3 arm carries H101G) heavy 1: not shown light 1: not shown heavy 2: QVQLQQWGAGLLKPSETLSLTCAVYGGSFSAYYWSWIRQPPGKGLEWIGDINHGGGTNYNPSLKSRVTISVDTSKNQFSLKLNSVTAADTAVYYCASLTAYWGQGSLVTVSSASTKGPSVFPLAPSSKSTSGGTAALGCLVKDYFPEPVTVSWNSGALTSGVHTFPAVLQSSGLYSLSSVVTVPSSSLGTQTYICNVNHKPSNTKVDKRVEPKSCDKTHTCPPCPAPEFEGGPSVFLFPPKPKDTLMISRTPEVTCVVVAVSHEDPEVKFNWYVDGVEVHNAKTKPREEQYNSTYRVVSVLTVLHQDWLNGKEYKCKVSNKALPAPIEKTISKAKGQPREPQVYTLPPSREEMTKNQVSLTCLVKGFYPSDIAVEWESNGQPENNYKTTPPVLDSDGSFFLYSRLTVDKSRWQQGNVFSCSVMHEALHNHYTQKSLSLSPG light 2: DIQMTQSPTSLSASVGDRVTITCRASQGISSWLTWYQQKPEKAPKSLIYAASSLQSGVPSRFSGSGSGTDFTLTISSLQPEDFATYYCQQYDSYPITFGQGTRLEIKRTVAAPSVFIFPPSDEQLKSGTASVVCLLNNFYPREAKVQWKVDNALQSGNSQESVTEQDSKDSTYSLSSTLTLSKADYEKHKVYACEVTHQGLSSPVTKSFNRGEC | binds | binds |  |  |  |  |  |  |  |  |  |  |
| bsG1-b12-FEALxCD30-MDX060-FERR (bispecific antibody, human IgG1, kappa, Monovalent CD30 control antibody) heavy 1: QVQLVQSGAEVKKPGASVKVSCQASGYRFSNFVIHWVRQAPGQRFEWMGWINPYNGNKEFSAKFQDRVTFTADTSANTAYMELRSLRSADTAVYYCARVGPYSWDDSPQDNYYMDVWGKGTTVIVSSASTKGPSVFPLAPSSKSTSGGTAALGCLVKDYFPEPVTVSWNSGALTSGVHTFPAVLQSSGLYSLSSVVTVPSSSLGTQTYICNVNHKPSNTKVDKRVEPKSCDKTHTCPPCPAPEFEGGPSVFLFPPKPKDTLMISRTPEVTCVVVAVSHEDPEVKFNWYVDGVEVHNAKTKPREEQYNSTYRVVSVLTVLHQDWLNGKEYKCKVSNKALPAPIEKTISKAKGQPREPQVYTLPPSREEMTKNQVSLTCLVKGFYPSDIAVEWESNGQPENNYKTTPPVLDSDGSFLLYSKLTVDKSRWQQGNVFSCSVMHEALHNHYTQKSLSLSPG light 1: EIVLTQSPGTLSLSPGERATFSCRSSHSIRSRRVAWYQHKPGQAPRLVIHGVSNRASGISDRFSGSGSGTDFTLTITRVEPEDFALYYCQVYGASSYTFGQGTKLERKRTVAAPSVFIFPPSDEQLKSGTASVVCLLNNFYPREAKVQWKVDNALQSGNSQESVTEQDSKDSTYSLSSTLTLSKADYEKHKVYACEVTHQGLSSPVTKSFNRGEC heavy 2: QVQLQQWGAGLLKPSETLSLTCAVYGGSFSAYYWSWIRQPPGKGLEWIGDINHGGGTNYNPSLKSRVTISVDTSKNQFSLKLNSVTAADTAVYYCASLTAYWGQGSLVTVSSASTKGPSVFPLAPSSKSTSGGTAALGCLVKDYFPEPVTVSWNSGALTSGVHTFPAVLQSSGLYSLSSVVTVPSSSLGTQTYICNVNHKPSNTKVDKRVEPKSCDKTHTCPPCPAPEFERGPSVFLFPPKPKDTLMISRTPEVTCVVVDVSHEDPEVKFNWYVDGVEVHNAKTKPREEQYNSTYRVVSVLTVLHQDWLNGKEYKCKVSNKALPAPIEKTISKAKGQPREPQVYTLPPSREEMTKNQVSLTCLVKGFYPSDIAVEWESNGQPENNYKTTPPVLDSDGSFFLYSRLTVDKSRWQQGNVFSCSVMHEALHNHYTQKSLSLSPG light 2: DIQMTQSPTSLSASVGDRVTITCRASQGISSWLTWYQQKPEKAPKSLIYAASSLQSGVPSRFSGSGSGTDFTLTISSLQPEDFATYYCQQYDSYPITFGQGTRLEIKRTVAAPSVFIFPPSDEQLKSGTASVVCLLNNFYPREAKVQWKVDNALQSGNSQESVTEQDSKDSTYSLSSTLTLSKADYEKHKVYACEVTHQGLSSPVTKSFNRGEC |  |  | ~0.4 µg/mL | ~0.2 µg/mL | ~0.2 µg/mL | ~0.3 µg/mL | ~0.1 µg/mL | ~0.5 µg/mL | ~0.2 µg/mL | ~0.2 µg/mL | ~0.3 µg/mL | ~0.1 µg/mL |
